Experiment [1] addresses T1, full-length GRK2 (endogenous, mouse heart) (mouse (endogenous, in the hearts of the …, UniProt Q99MK8 1-689)).
T1 construct: GRK2 in the heart'; also called βARK1
T1 sequence (looked up): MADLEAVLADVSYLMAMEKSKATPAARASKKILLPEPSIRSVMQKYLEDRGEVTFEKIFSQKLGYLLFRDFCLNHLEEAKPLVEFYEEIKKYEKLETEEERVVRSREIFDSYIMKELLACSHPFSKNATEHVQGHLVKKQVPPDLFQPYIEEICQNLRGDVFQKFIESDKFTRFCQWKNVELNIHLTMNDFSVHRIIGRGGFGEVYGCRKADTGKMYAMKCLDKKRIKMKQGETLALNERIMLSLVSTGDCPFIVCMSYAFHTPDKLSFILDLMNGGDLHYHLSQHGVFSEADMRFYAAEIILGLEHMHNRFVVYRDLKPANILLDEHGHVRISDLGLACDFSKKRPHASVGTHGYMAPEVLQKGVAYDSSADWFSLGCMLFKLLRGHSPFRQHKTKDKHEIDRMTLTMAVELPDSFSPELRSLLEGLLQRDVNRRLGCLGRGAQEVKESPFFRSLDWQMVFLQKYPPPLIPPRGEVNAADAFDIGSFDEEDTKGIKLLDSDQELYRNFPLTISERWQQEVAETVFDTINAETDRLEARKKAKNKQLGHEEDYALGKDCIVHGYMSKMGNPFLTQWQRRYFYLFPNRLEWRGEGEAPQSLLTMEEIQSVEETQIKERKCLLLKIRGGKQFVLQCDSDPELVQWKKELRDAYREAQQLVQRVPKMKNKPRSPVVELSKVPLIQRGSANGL
Description: anti-FLAG immunoprecipitation from cardiac lysates of TgβARKnt mice 4 weeks after Sham or TAC, western blot.

Experiment [2] concerns the target T2, endogenous Gαq in the mouse heart (mouse (endogenous, in the hearts of the …, UniProt P21279 1-359)).
T2 construct: Endogenous protein in cardiac lysates, detected by western blot with anti-Gαq antibody; also called Gq; Gaq
T2 sequence (looked up): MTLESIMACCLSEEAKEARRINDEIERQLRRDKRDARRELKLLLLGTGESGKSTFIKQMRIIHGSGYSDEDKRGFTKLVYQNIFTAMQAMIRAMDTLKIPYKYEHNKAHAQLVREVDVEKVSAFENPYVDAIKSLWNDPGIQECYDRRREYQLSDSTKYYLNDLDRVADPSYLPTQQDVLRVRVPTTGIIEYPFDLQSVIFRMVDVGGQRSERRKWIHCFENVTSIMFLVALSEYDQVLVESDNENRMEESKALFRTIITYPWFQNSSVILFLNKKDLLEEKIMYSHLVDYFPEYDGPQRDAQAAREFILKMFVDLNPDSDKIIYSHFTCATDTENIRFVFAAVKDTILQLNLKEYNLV
The experiment in a line: anti-FLAG immunoprecipitation from cardiac lysates of TgβARKnt mice 4 weeks after Sham or TAC, western blot with anti-Gαq antibody. (A western blot detects proteins with antibodies after separation by electrophoresis.)

B1: flag-tagged βARKnt (bovine GRK2 residues 50-145 with a carboxy-terminal flag-tag) (peptide)
chain: RGEVTFEKIFSQKLGYLLFRDFCLKHLEEAKPLVEFYEEIKKYEKLETEEERLVCSREIFDTYIMKELLACSHPFSKSAIEHVQGHLVKKQVPPDL
notes: An initiator Met is not described; also called βARKnt peptide; βARKnt-flag; not shown: carboxy-terminal flag-tag
Regarding B1, the binding result in experiment [1] and in experiment [2] was “no binding” each time.

Values taken from patent publication US20190134223A1 (TEMPLE UNIVERSITY OF THE COMMONWEALTH SYSTEM OF HIGHER …, published 2019).
